Measurements published in US9958461B2, “Detection of protein to protein interactions” (THE GOVERNING COUNCIL OF THE UNIVERSITY OF TORONTO, priority 2013, dated 2018).

How the values were obtained:
EGFR-L858R = molecular target: T1, EGFR-L858R (Homo sapiens, UniProt P00533, L858R); assay: MaMTH EGFR-interactor screen, lentiviral preys against EGFR-L858R bait (interaction score); type: cell-based; details: MaMTH interaction score of prey with EGFR-L858R bait
T1 construct: with the advantage of testing full-length integral membrane proteins; (GGGGS)2 linker-Cub (human ubiquitin aa 35-76)-GAL4(1-147)-mNFkB(364-550) (C); expressed in transfected cells
Summary of the method: (§1)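 5×GAL4UAS-luciferase HEK293T reporter cells were lentivirally infected with preys (MOI ~0.3-0.4) and puromycin-selected ≥48 h. They were then transfected in triplicate with the EGFR bait, and luciferase was read 24 h later. Score is fold-change over averaged negative-control preys; >1 denotes interaction.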

EGFR-Wt [1] = assay: MaMTH EGFR-interactor screen, lentiviral preys against EGFR-wildtype bait (interaction score); type: cell-based, human; details: ratio of EGFR-Wt mean to EGFR-L858R mean interaction score
Summary of the method: as §1

EGFR-Wt [2] = molecular target: T2, EGFR-Wt (Homo sapiens, UniProt P00533); assay: as above; type: cell-based; details: MaMTH interaction score of prey with EGFR-Wt bait, mean
T2 construct: with the advantage of testing full-length integral membrane proteins; (GGGGS)2 linker-Cub (human ubiquitin aa 35-76)-GAL4(1-147)-mNFkB(364-550) (C); expressed in transfected cells
Summary of the method: as §1

Molecule	EGFR-L858R mean (EGFR-L858R)	EGFR-Wt mean (EGFR-Wt [2])	Wt/L858R (EGFR-Wt [1])
SH2D3A (protein, UniProt Q9BRG2 1-576, looked up) SH2 domain-containing protein …: MQVPQDGEDLAGQPWYHGLLSRQKAEALLQQNGDFLVRASGSRGGNPVISCRWRGSALHFEVFRVALRPRPGRPTALFQLEDEQFPSIPALVHSYMTGRRPLSQATGAVVSRPVTWQGPLRRSFSEDTLMDGPARIEPLRARKWSNSQPADLAHMGRSREDPAGMEASTMPISALPRTSSDPVLLKAPAPLGTVADSLRASDGQLQAKAPTKPPRTPSFELPDASERPPTYCELVPRVPSVQGTSPSQSCPEPEAPWWEAEEDEEEENRCFTRPQAEISFCPHDAPSCLLGPQNRPLEPQVLHTLRGLFLEHHPGSTALHLLLVDCQATGLLGVTRDQRGNMGVSSGLELLTLPHGHHLRLELLERHQTLALAGALAVLGCSGPLEERAAALRGLVELALALRPGAAGDLPGLAAVMGALLMPQVSRLEHTWRQLRRSHTEAALAFEQELKPLMRALDEGAGPCDPGEVALPHVAPMVRLLEGEEVAGPLDESCERLLRTLHGARHMVRDAPKFRKVAAQRLRGFRPNPELREALTTGFVRRLLWGSRGAGAPRAERFEKFQRVLGVLSQRLEPDR	7.23	4.75	0.66
STAT1 (protein, UniProt P42224 2-750, looked up) Signal transducer and …: SQWYELQQLDSKFLEQVHQLYDDSFPMEIRQYLAQWLEKQDWEHAANDVSFATIRFHDLLSQLDDQYSRFSLENNFLLQHNIRKSKRNLQDNFQEDPIQMSMIIYSCLKEERKILENAQRFNQAQSGNIQSTVMLDKQKELDSKVRNVKDKVMCIEHEIKSLEDLQDEYDFKCKTLQNREHETNGVAKSDQKQEQLLLKKMYLMLDNKRKEVVHKIIELLNVTELTQNALINDELVEWKRRQQSACIGGPPNACLDQLQNWFTIVAESLQQVRQQLKKLEELEQKYTYEHDPITKNKQVLWDRTFSLFQQLIQSSFVVERQPCMPTHPQRPLVLKTGVQFTVKLRLLVKLQELNYNLKVKVLFDKDVNERNTVKGFRKFNILGTHTKVMNMEESTNGSLAAEFRHLQLKEQKNAGTRTNEGPLIVTEELHSLSFETQLCQPGLVIDLETTSLPVVVISNVSQLPSGWASILWYNMLVAEPRNLSFFLTPPCARWAQLSEVLSWQFSSVTKRGLNVDQLNMLGEKLLGPNASPDGLIPWTRFCKENINDKNFPFWLWIESILELIKKHLLPLWNDGCIMGFISKERERALLKDQQPGTFLLRFSESSREGAITFTWVERSQNGGEPDFHAVEPYTKKELSAVTFPDIIRNYKVMAAENIPENPLKYLYPNIDKDHAFGKYYSRPKEAPEPMELDGPKGTGYIKTELISVSEVHPSRLQTTDNLLPMSPEEFDEVSRIVGSVEFDSMMNTV	6.80	4.70	0.69
Pdgfra (protein, UniProt P26618 25-1089, looked up) Platelet-derived growth …: LLLPSILPNENEKIVQLNSSFSLRCVGESEVSWQHPMSEEDDPNVEIRSEENNSGLFVTVLEVVNASAAHTGWYTCYYNHTQTDESEIEGRHIYIYVPDPDMAFVPLGMTDSLVIVEEDDSAIIPCRTTDPETQVTLHNNGRLVPASYDSRQGFNGTFSVGPYICEATVKGRTFKTSEFNVYALKATSELNLEMDARQTVYKAGETIVVTCAVFNNEVVDLQWTYPGEVRNKGITMLEEIKLPSIKLVYTLTVPKATVKDSGEYECAARQATKEVKEMKRVTISVHEKGFVEIEPTFGQLEAVNLHEVREFVVEVQAYPTPRISWLKDNLTLIENLTEITTDVQKSQETRYQSKLKLIRAKEEDSGHYTIIVQNEDDVKSYTFELSTLVPASILDLVDDHHGSGGGQTVRCTAEGTPLPEIDWMICKHIKKCNNDTSWTVLASNVSNIITELPRRGRSTVEGRVSFAKVEETIAVRCLAKNNLSVVARELKLVAPTLRSELTVAAAVLVLLVIVIVSLIVLVVIWKQKPRYEIRWRVIESISPDGHEYIYVDPMQLPYDSRWEFPRDGLVLGRILGSGAFGKVVEGTAYGLSRSQPVMKVAVKMLKPTARSSEKQALMSELKIMTHLGPHLNIVNLLGACTKSGPIYIITEYCFYGDLVNYLHKNRDSFMSQHPEKPKKDLDIFGLNPADESTRSYVILSFENNGDYMDMKQADTTQYVPMLERKEVSKYSDIQRSLYDRPASYKKKSMLDSEVKNLLSDDDSEGLTLLDLLSFTYQVARGMEFLASKNCVHRDLAARNVLLAQGKIVKICDFGLARDIMHDSNYVSKGSTFLPVKWMAPESIFDNLYTTLSDVWSYGILLWEIFSLGGTPYPGMMVDSTFYNKIKSGYRMAKPDHATSEVYEIMVQCWNSEPEKRPSFYHLSEIVENLLPGQYKKSYEKIHLDFLKSDHPAVARMRVDSDNAYIGVTYKNEEDKLKDWEGGLDEQRLSADSGYIIPLPDIDPVPEEEDLGKRNRHSSQTSEESAIETGSSSSTFIKREDETIEDIDMMDDIGIDSSDLVEDSFL	13.73	9.18	0.67
LYN (protein, UniProt P07948 2-512, looked up) Tyrosine-protein kinase Lyn: GCIKSKGKDSLSDDGVDLKTQPVRNTERTIYVRDPTSNKQQRPVPESQLLPGQRFQTKDPEEQGDIVVALYPYDGIHPDDLSFKKGEKMKVLEEHGEWWKAKSLLTKKEGFIPSNYVAKLNTLETEEWFFKDITRKDAERQLLAPGNSAGAFLIRESETLKGSFSLSVRDFDPVHGDVIKHYKIRSLDNGGYYISPRITFPCISDMIKHYQKQADGLCRRLEKACISPKPQKPWDKDAWEIPRESIKLVKRLGAGQFGEVWMGYYNNSTKVAVKTLKPGTMSVQAFLEEANLMKTLQHDKLVRLYAVVTREEPIYIITEYMAKGSLLDFLKSDEGGKVLLPKLIDFSAQIAEGMAYIERKNYIHRDLRAANVLVSESLMCKIADFGLARVIEDNEYTAREGAKFPIKWTAPEAINFGCFTIKSDVWSFGILLYEIVTYGKIPYPGRTNADVMTALSQGYRMPRVENCPDELYDIMKMCWKEKAEERPTFDYLQSVLDDFYTATEGQYQQQP	9.74	6.92	0.71

Second part, led by results:

EGFR-L858R mean (EGFR-L858R)	EGFR-Wt mean (EGFR-Wt [2])	Molecule	Wt/L858R (EGFR-Wt [1])
3.11	2.22	SLA2 (protein, UniProt Q9H6Q3 2-261, looked up) Src-like-adapter 2: GSLPSRRKSLPSPSLSSSVQGQGPVTMEAERSKATAVALGSFPAGGPAELSLRLGEPLTIVSEDGDWWTVLSEVSGREYNIPSVHVAKVSHGWLYEGLSREKAEELLLLPGNPGGAFLIRESQTRRGSYSLSVRLSRPASWDRIRHYRIHCLDNGWLYISPRLTFPSLQALVDHYSELADDICCLLKEPCVLQRAGPLPGKDIPLPVTVQRTPLNWKELDSSLLFSEAATGEESLLSEGLRESLSFYISLNDEAVSLDDA	0.71
5.13	3.30	MAPK8 (protein, UniProt P45983 1-427, looked up) Mitogen-activated protein …: MSRSKRDNNFYSVEIGDSTFTVLKRYQNLKPIGSGAQGIVCAAYDAILERNVAIKKLSRPFQNQTHAKRAYRELVLMKCVNHKNIIGLLNVFTPQKSLEEFQDVYIVMELMDANLCQVIQMELDHERMSYLLYQMLCGIKHLHSAGIIHRDLKPSNIVVKSDCTLKILDFGLARTAGTSFMMTPYVVTRYYRAPEVILGMGYKENVDLWSVGCIMGEMVCHKILFPGRDYIDQWNKVIEQLGTPCPEFMKKLQPTVRTYVENRPKYAGYSFEKLFPDVLFPADSEHNKLKASQARDLLSKMLVIDASKRISVDEALQHPYINVWYDPSEAEAPPPKIPDKQLDEREHTIEEWKELIYKEVMDLEERTKNGVIRGQPSPLGAAVINGSQHPSSSSSVNDVSSMSTDPTLASDTDSSLEAAAGPLGCCR	0.64
2.18	1.54	PTPN18 (protein, UniProt Q99952 1-460, looked up) Tyrosine-protein phosphatase …: MSRSLDSARSFLERLEARGGREGAVLAGEFSDIQACSAAWKADGVCSTVAGSRPENVRKNRYKDVLPYDQTRVILSLLQEEGHSDYINGNFIRGVDGSLAYIATQGPLPHTLLDFWRLVWEFGVKVILMACREIENGRKRCERYWAQEQEPLQTGLFCITLIKEKWLNEDIMLRTLKVTFQKESRSVYQLQYMSWPDRGVPSSPDHMLAMVEEARRLQGSGPEPLCVHCSAGCGRTGVLCTVDYVRQLLLTQMIPPDFSLFDVVLKMRKQRPAAVQTEEQYRFLYHTVAQMFCSTLQNASPHYQNIKENCAPLYDDALFLRTPQALLAIPRPPGGVLRSISVPGSPGHAMADTYAVVQKRGAPAGAGSGTQTGTGTGTGARSAEEAPLYSKVTPRAQRPGAHAEDARGTLPGRVPADQSPAGSGAYEDVAGGAQTGGLGFNLRIGRPKGPRDPPAEWTRV	0.71
7.37	4.83	BAIAP2 (protein, UniProt Q9UQB8 1-552, looked up) BAR/IMD domain-containing …: MSLSRSEEMHRLTENVYKTIMEQFNPSLRNFIAMGKNYEKALAGVTYAAKGYFDALVKMGELASESQGSKELGDVLFQMAEVHRQIQNQLEEMLKSFHNELLTQLEQKVELDSRYLSAALKKYQTEQRSKGDALDKCQAELKKLRKKSQGSKNPQKYSDKELQYIDAISNKQGELENYVSDGYKTALTEERRRFCFLVEKQCAVAKNSAAYHSKGKELLAQKLPLWQQACADPSKIPERAVQLMQQVASNGATLPSALSASKSNLVISDPIPGAKPLPVPPELAPFVGRMSAQESTPIMNGVTGPDGEDYSPWADRKAAQPKSLSPPQSQSKLSDSYSNTLPVRKSVTPKNSYATTENKTLPRSSSMAAGLERNGRMRVKAIFSHAAGDNSTLLSFKEGDLITLLVPEARDGWHYGESEKTKMRGWFPFSYTRVLDSDGSDRLHMSLQQGKSSSTGNLLDKDDLAIPPPDYGAASRAFPAQTASGFKQRPYSVAVPAFSQGLDDYGARSMSRNPFAHVQLKPTVTNDRCDLSAQGPEGREHGDGSARTLAGR	0.66
21.65	13.89	Shc1 (protein, UniProt P98083 1-579, looked up) SHC-transforming protein 1: MDLLPPKPKYNPLRNESLSSLEEGASGSTPPEELPSPSASSLGPILPPLPGDDSPTTLCSFFPRMSNLKLANPAGGRLGPKGEPGKAAEDGEGSAGAALRDSGLLPLLQDMNKLSGGGGRRTRVEGGQLGGEEWTRHGSFVNKPTRGWLHPNDKVMGPGVSYLVRYMGCVEVLQSMRALDFNTRTQVTREAISLVCEAVPGAKGATRRRKPCSRPLSSILGRSNLKFAGMPITLTVSTSSLNLMAADCKQIIANHHMQSISFASGGDPDTAEYVAYVAKDPVNQRACHILECPEGLAQDVISTIGQAFELRFKQYLRNPPKLVTPHDRMAGFDGSAWDEEEEEPPDHQYYNDFPGKEPPLGGVVDMRLREGAARPTLPSAQMSSHLGATLPIGQHAAGDHEVRKQMLPPPPCPGRELFDDPSYVNIQNLDKARQAGGGAGPPNPSLNGSAPRDLFDMKPFEDALRVPPPPQSMSMAEQLQGEPWFHGKLSRREAEALLQLNGDFLVRESTTTPGQYVLTGLQSGQPKHLLLVDPEGVVRTKDHRFESVSHLISYHMDNHLPIISAGSELCLQQPVDRKV	0.64
